The target in assay [1] is T1, OX40 overexpressed on HEK293F cells (UniProt P43489 29-277, limits assumed).
T1 construct: whole, on cells
T1 sequence (looked up): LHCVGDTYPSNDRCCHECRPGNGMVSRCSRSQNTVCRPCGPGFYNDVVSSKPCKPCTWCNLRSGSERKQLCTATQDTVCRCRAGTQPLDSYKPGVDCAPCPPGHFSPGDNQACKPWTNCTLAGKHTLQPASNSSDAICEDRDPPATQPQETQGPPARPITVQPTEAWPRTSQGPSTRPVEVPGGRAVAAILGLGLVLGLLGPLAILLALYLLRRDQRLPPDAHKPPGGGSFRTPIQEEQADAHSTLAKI
As to the kind of experiment: flow cytometry, HEK293F cells expressing the receptor [Cont.].

Assay [2] deals with T2, CD40 overexpressed on HEK293F cells (UniProt P25942 21-277, limits assumed).
T2 construct: whole, on cells
The assay is described as above.

The target in assay [3] is T3, GITR overexpressed on HEK293F cells (UniProt Q9Y5U5 26-241, limits assumed).
T3 construct: whole, on cells
T3 sequence (looked up): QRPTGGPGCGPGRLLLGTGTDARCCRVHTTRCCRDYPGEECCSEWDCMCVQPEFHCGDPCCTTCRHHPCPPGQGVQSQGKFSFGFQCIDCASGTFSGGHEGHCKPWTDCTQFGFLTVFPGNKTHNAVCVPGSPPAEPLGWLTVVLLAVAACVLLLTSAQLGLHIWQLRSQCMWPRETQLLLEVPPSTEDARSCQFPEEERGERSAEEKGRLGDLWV
The description is as above.

Assay [4] has as its target T4, CD27 overexpressed on HEK293F cells (UniProt P26842 20-260, limits assumed).
T4 construct: whole, on cells
T4 sequence (looked up): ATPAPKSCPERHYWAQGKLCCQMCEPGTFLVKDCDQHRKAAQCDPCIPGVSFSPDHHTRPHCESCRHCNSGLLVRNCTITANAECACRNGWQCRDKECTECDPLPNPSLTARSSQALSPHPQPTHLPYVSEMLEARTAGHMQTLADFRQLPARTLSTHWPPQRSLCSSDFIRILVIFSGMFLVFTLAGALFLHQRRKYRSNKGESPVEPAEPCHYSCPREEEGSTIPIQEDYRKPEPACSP
The description is as above.

In assay [5] the target is T5, mouse CD137 fused with human FC fragment (mouse, UniProt P20334 24-178, limits assumed).
T5 construct: also called mouse CD137-Fc; not shown: human Fc fragment
T5 sequence: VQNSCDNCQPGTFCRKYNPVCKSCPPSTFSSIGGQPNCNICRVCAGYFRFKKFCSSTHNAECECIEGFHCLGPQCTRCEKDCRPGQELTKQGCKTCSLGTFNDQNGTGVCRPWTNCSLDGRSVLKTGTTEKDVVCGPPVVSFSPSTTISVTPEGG
Description: ELISA, CD137-Fc coated in serial dilution, IgG 5 µg/mL, protein L-HRP.

The target of assay [6] is T6, human CD137-His6 (Sino Biological #10041-H08H) (human, UniProt Q07011 24-186).
T6 construct: Bought; also called human CD137 protein; not shown: His6 tag
As to the kind of experiment: SPR Biacore, IgG captured; Table 3 run, IgG captured by anti-human Fc; Table 1b gives 3.8E-08 M from a separate measurement.

The target of the next assay is T7, Hu_T35A (human, UniProt Q07011 18-255).
T7 construct: On HEK293F; also called human CD137 T35A
Description: flow cytometry, HEK293F.

The target in the next assay is T8, Hu_F36A (human, UniProt Q07011 18-255).
T8 construct: On HEK293F; also called human CD137 F36A
As to the kind of experiment: flow cytometry, HEK293F.

Another assay concerns the target T9, Hu_F53A (human, UniProt Q07011 18-255).
T9 construct: On HEK293F; also called human CD137 F53A
Description: flow cytometry, HEK293F.

The target in the next assay is T10, Hu_R66A (human, UniProt Q07011 18-255).
T10 construct: On HEK293F; also called human CD137 R66A
Description: flow cytometry, HEK293F.

The next assay has as its target T11, Hu_F72A (human, UniProt Q07011 18-255).
T11 construct: On HEK293F; also called human CD137 F72A
As to the kind of experiment: flow cytometry, HEK293F.

The next assay deals with T12, Hu_N83A (human, UniProt Q07011 18-255).
T12 construct: On HEK293F; also called human CD137 N83A
Description: flow cytometry, HEK293F.

For another assay, the target named is T13, Hu_F92A (human, UniProt Q07011 18-255).
T13 construct: On HEK293F; also called human CD137 F92A
As to the kind of experiment: flow cytometry, HEK293F.

Assay [7] has as its target T1, OX40 overexpressed on HEK293F cells. Description: flow cytometry, HEK293F cells expressing the receptor.
Assay [8] addresses T2, CD40 overexpressed on HEK293F cells. Described as above.
Assay [9] deals with T3, GITR overexpressed on HEK293F cells. The description is as above.
Assay [10] addresses T4, CD27 overexpressed on HEK293F cells. The assay is described as above.

T2 sequence (P25942 21-277 limits assumed): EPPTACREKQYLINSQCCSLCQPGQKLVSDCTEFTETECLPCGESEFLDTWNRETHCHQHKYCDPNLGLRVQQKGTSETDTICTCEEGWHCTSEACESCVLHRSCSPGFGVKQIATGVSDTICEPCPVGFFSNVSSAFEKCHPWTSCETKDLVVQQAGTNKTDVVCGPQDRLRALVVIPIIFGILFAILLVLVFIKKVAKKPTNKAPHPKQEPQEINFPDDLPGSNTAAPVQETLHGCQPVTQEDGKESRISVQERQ
T9 sequence (Q07011 18-255 F53A): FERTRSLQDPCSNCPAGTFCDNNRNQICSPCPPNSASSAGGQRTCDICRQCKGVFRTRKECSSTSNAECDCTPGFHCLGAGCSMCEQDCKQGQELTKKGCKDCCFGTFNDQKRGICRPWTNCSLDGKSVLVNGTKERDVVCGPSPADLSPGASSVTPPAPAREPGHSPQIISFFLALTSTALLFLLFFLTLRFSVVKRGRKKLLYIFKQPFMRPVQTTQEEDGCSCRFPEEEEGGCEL
T8 sequence (Q07011 18-255 F36A): as the sequence (Q07011 18-255 F53A) above, with F19A, A36F counted along it
T11 sequence (Q07011 18-255 F72A): as the sequence (Q07011 18-255 F53A) above, with A36F, F55A counted along it
T7 sequence (Q07011 18-255 T35A): as the sequence (Q07011 18-255 F53A) above, with T18A, A36F counted along it
T12 sequence (Q07011 18-255 N83A): as the sequence (Q07011 18-255 F53A) above, with A36F, N66A counted along it

B1: AG10059 (antibody, human IgG4 S228P, kappa, V domains shown)
VH: EVQLVESGGGLVQPGGSLRLSCAASGYSITSGHYWAWIRQAPGKGLEWVSSISGYGSTTYYADSVKGRFTISRDNSKNTLYLQLNSLRAEDTAVYYCARGGSDAVLGDWFAYWGQGTLVTVSS
VL: DIQLTQSPSSLSASVGDRVTITCRASQGIGSFLAWYQQKPGKAPKLLIYDASNLETGVPSRFSGSGSGTDFTLTISSLQPEDFATYYCQQGYYLWTFGQGTKVEIKR
For the molecule B1, the binding result is reported as “no binding (tested: 100 nM (text paragraph 226))” in assay [1]; “no binding (tested: 100 nM (text paragraph 226))” in assay [2]; “no binding (tested: 100 nM (text paragraph 226))” in assay [3]; “no binding (tested: 100 nM (text paragraph 226))” in assay [4]; “no binding” in assay [5]. In [6], this molecule gave a Kd of 24.2 nM.

B2: AG10058 (antibody, human IgG4 S228P, kappa, V domains shown)
VH: EVQLVESGGGLVQPGGSLRLSCAASGFSLSTSGVGVGWIRQAPGKGLEWLALIDWDDDKYYSPSLKSRLTISRDNSKNTLYLQLNSLRAEDTAVYYCARGGSDTVLGDWFAYWGQGTLVTVSS
VL: DIQLTQSPSSLSASVGDRVTITCRASQSVSPYLAWYQQKPGKAPKLLIYDASSLESGVPSRFSGSGSGTDFTLTISSLQPEDFATYYCQQGYSLWTFGQGTKVEIKR
In the case of B2, the binding result with Hu_T35A, in the assay with Hu_F36A, in the assay with Hu_F53A, with Hu_R66A, in the assay with Hu_F72A and with Hu_N83A was “no binding” throughout. In addition, the binding result is “no binding” with Hu_F92A; “no binding (tested: 100 nM (text paragraph 226))” in assay [7]; “no binding (tested: 100 nM (text paragraph 226))” in assay [8]; “no binding (tested: 100 nM (text paragraph 226))” in assay [9]; “no binding (tested: 100 nM (text paragraph 226))” in assay [10].

For the origin of these results see patent publication US20190055314A1 (ADAGENE, published 2019).
